Measured values: US12442042B2, “Epigenomic profiling reveals the somatic promoter landscape of primary gastric adenocarcinoma” (AGENCY FOR SCIENCE, TECHNOLOGY AND RESEARCH, priority 2016, dated 2025)

How the values were obtained:
HLA-A*02:06 T cells = assay: IFN-γ assay: primed T cells co-cultured with AGS cells expressing RASA3 isoforms (ELISA); assay type: cell-based, human; conditions: T cells primed with the isoform, co-cultured with AGS cells expressing the same isoform, two days
Procedure: To test the immunogenicity of the RASA3 WT and Variant protein sequences, CD14+ monocytes were isolated from a HLA-A*02:06 donor by positive selection using magnetic beads (Miltenyi, Germany). Dendritic cells were generated by GM-CSF (1000 IU/ml) and IL-4 (400 IU/ml), and further matured by TNF (10 ng/ml), IL-1b (10 ng/ml), IL-6 (10 ng/ml) (Miltenyi, Germany) and PGE2 (1 μg/ml) (Stemcell Technologies, Canada) for 24 hours. The DCs were then primed with AGS cell lysates expressing WT RASA3 or Variant RASA3 for 24 hours, before being co-cultured with T cells from the same donor at the ratio of 1:5. After 5 days of co-culture with DC, T cells were isolated by positive selection using CD3 magnetic beads (Miltenyi, Germany) and co-cultured with AGS cells expressing either WT or Variant RASA3 at the ratio of 20:1 for two days. Supernatants were harvested and IFN-γ release was measured by ELISA (R&D, USA).

AGS cells [1] = assay: Transwell migration assay; assay type: cell-based; conditions: KRAS mutated AGS cells transfected with isoform, 24 h
Procedure: (§1) To determine cell migratory capacities, RASA3 wild type and variant transfected AGS and GES1, SNU1967 and AGS, and siRNA treated NCC24 cells were tested using Corning Costar 6.5 mm Transwell with 8.0 μm Pore Polycarbonate Membrane Inserts (3422, Corning, NY, USA). 2.5×10^4 AGS cells and 2×10^4 GES1 cells, 3×10^4 SNU1967 cells and 5×10^4 NCC24 cells were suspended in 0.1 ml serum-free RPMI medium and added to the top of the Transwell insert. 0.6 ml RPMI containing 10% FBS was added into the bottom well as a chemoattractant. After incubation for 24 h at 37° C. in a 5% CO2 incubator, cells were fixed with 3.7% formaldehyde and permeabilized with 100% methanol. Non-migrated cells were scraped off with cotton swabs from the upper surface of the membrane. Migrated cells were stained with 0.5% crystal violet. The number of migrated cells were represented as the total area of migrated cells vs the area of transwell membrane calculated using ImageJ software. For cell invasion assays, the above Transwell inserts were coated with 0.1 ml (300 μg/mL) Corning Matrigel matrix (354234, Corning, NY, USA) for 2 to 4 h at 37° C. before use. All subsequent steps were identical to the migration assay protocol.

GES1 cells [2] = assay: Transwell migration assay; assay type: cell-based; conditions: GES1 cells transfected with isoform, 24 h
Procedure: as §1

GES1 cells [3] = assay: Matrigel invasion assay; assay type: cell-based; conditions: GES1 cells transfected with isoform
Procedure: as §1

SNU1967 cells [4] = assay: Matrigel invasion assay; assay type: cell-based; conditions: SNU1967 cells transfected with isoform
Procedure: as §1

AGS cells [5] = assay: Cell proliferation assay (WST-8); assay type: cell-based; conditions: 24 to 120 hours post-transfection
Procedure: (§2) 3×10^3 GES1, SNU1967 and AGS cells were plated into 96-well plates in media with 10% fetal bovine serum and left overnight to attach. The next day (Day 0), cells were transiently transfected with wild-type and variant RASA3 constructs using Lipofectamine 3000 (Thermo Scientific). The amount of the constructs was 40 ng/well for AGS and 100 ng/well for GES1 and SNU1967 cells. Cell proliferation was measured by the WST-8 assay (Cell Counting Kit-8, Dojindo) from 24 to 120 hours post-transfection. 10 μL of WST-8 solution was added per well and the absorbance reading was measured at 450 nm after 2 hours of incubation in a humidified incubator.

GES1 cells [6] = assay: Cell proliferation assay (WST-8); assay type: cell-based; conditions: 24 to 120 hours post-transfection
Procedure: as §2

SNU1967 cells [7] = assay: Cell proliferation assay (WST-8); assay type: cell-based; conditions: 24 to 120 hours post-transfection
Procedure: as §2

RAS = assay: RAS-GTP assay (Active RAS pull-down) in GES1 cells; assay type: cell-based; conditions: vs empty vector or RASA3 SomT
Procedure: GES1 cells were transfected with either RASA3 CanT, RASA3 SomT or empty vector for 48 hours. Cells were harvested for protein in FBS containing media or subjected to over-night serum starvation followed by serum stimulation for 30 minutes prior to harvest. Proteins were extracted using ice-cold lysis buffer (Active RAS Pull-down and Detection Kit) containing protease inhibitor cocktail (Nacalai Tesque). Active RAS fraction was obtained using the Active RAS Pull-down and Detection Kit (Thermo Fisher Scientific) according to manufacturer's instructions. Total RAS was measured in corresponding whole cell protein lysates. β-actin was used as a loading control. Protein concentrations were determined using the Pierce BCA protein assay (Thermo Scientific). SDS sample buffer was added to the lysates and boiled at 100° C. for 5 minutes. Samples were loaded in each well of a 4-15% Mini-Protean TGX gel (Biorad) and transferred to a PVDF membrane using a semi-dry blotting system (Biorad). Membranes were probed with anti-RAS (1 in 200 dilution, supplied in Active RAS Pull-down and Detection Kit), or B-actin (1 in 5000 dilution, Sigma A5316) in 5% milk-PBST at 4° C. over-night. Secondary anti-mouse antibody (LNA931, Amersham) was used at a dilution of 1 in 2000 for 1 hour at room temperature. […]

B1: RASA3 CanT: canonical full-length RASA3 protein isoform, transfected construct (protein, UniProt Q14644 1-834, looked up)
chain: MAVEDEGLRVFQSVKIKIGEAKNLPSYPGPSKMRDCYCTVNLDQEEVFRTKIVEKSLCPFYGEDFYCEIPRSFRHLSFYIFDRDVFRRDSIIGKVAIQKEDLQKYHNRDTWFQLQHVDADSEVQGKVHLELRLSEVITDTGVVCHKLATRIVECQGLPIVNGQCDPYATVTLAGPFRSEAKKTKVKRKTNNPQFDEVFYFEVTRPCSYSKKSHFDFEEEDVDKLEIRVDLWNASNLKFGDEFLGELRIPLKVLRQSSSYEAWYFLQPRDNGSKSLKPDDLGSLRLNVVYTEDHVFSSDYYSPLRDLLLKSADVEPVSASAAHILGEVCREKQEAAVPLVRLFLHYGRVVPFISAIASAEVKRTQDPNTIFRGNSLASKCIDETMKLAGMHYLHVTLKPAIEEICQSHKPCEIDPVKLKDGENLENNMENLRQYVDRVFHAITESGVSCPTVMCDIFFSLREAAAKRFQDDPDVRYTAVSSFIFLRFFAPAILSPNLFQLTPHHTDPQTSRTLTLISKTVQTLGSLSKSKSASFKESYMATFYEFFNEQKYADAVKNFLDLISSSGRRDPKSVEQPIVLKEGFMIKRAQGRKRFGMKNFKKRWFRLTNHEFTYHKSKGDQPLYSIPIENILAVEKLEEESFKMKNMFQVIQPERALYIQANNCVEAKDWIDILTKVSQCNQKRLTVYHPSAYLSGHWLCCRAPSDSAPGCSPCTGGLPANIQLDIDGDRETERIYSLFNLYMSKLEKMQEACGSKSVYDGPEQEEYSTFVIDDPQETYKTLKQVIAGVGALEQEHAQYKRDKFKKTKYGSQEHPIGDKSFQNYIRQQSETSTHSI
modifications: full-length
notes: canonical full-length RASA3 protein isoform, transfected construct
IFNγ release from primed T cells (HLA-A*02:06 T cells): significantly more | migration (AGS cells [1]): potently suppressed | migration (AGS cells [1]; listed as RASA3 WT): more potent migration suppression | migration (GES1 cells [2]): did not | invasion (GES1 cells [3]): did not | invasion (SNU1967 cells [4]): significantly suppressed | cellular proliferation rate (AGS cells [5]): did not alter | cellular proliferation rate (GES1 cells [6]): did not alter | cellular proliferation rate (SNU1967 cells [7]): did not alter | levels of active GTP-bound RAS (RAS): lower levels of active GTP-bound RAS
